Measured values as given in article PMC12366639.

Substrate: CC=O
Experiment: purified protein
Assay type: biochemical, Homo sapiens
Conditions: NAD+

B1: aldehyde dehydrogenase 2 (ALDH2) (Homo sapiens) (protein)
chain: SAAATQAVPAPNQQPEVFCNQIFINNEWHDAVSRKTFPTVNPSTGEVICQVAEGDKEDVDKAVKAARAAFQLGSPWRRMDASHRGRLLNRLADLIERDRTYLAALETLDNGKPYVISYLVDLDMVLKCLRYYAGWADKYHGKTIPIDGDFFSYTRHEPVGVCGQIIPWNFPLLMQAWKLGPALATGNVVVMKVAEQTPLTALYVANLIKEAGFPPGVVNIVPGFGPTAGAAIASHEDVDKVAFTGSTEIGRVIQVAAGSSNLKRVTLELGGKSPNIIMSDADMDWAVEQAHFALFFNQGQCCCAGSRTFVQEDIYDEFVERSVARAKSRVVGNPFDSKTEQGPQVDETQFKKILGYINTGKQEGAKLLCGGGIAADRGYFIQPTVFGDVQDGMTIAKEEIFGPVMQILKFKTIEEVVGRANNSTYGLAAAVFTKDLDKANYLSQALQAGTVWVNCYDVFGAQSPFGGYKMSGSGRELGEYGLQAYTEVKTVTVKVPQKNS
With B1 the Km was 1.8 µM.
